Data on two molecules can be found in patent publication US20190284293A1, “COMBINATION THERAPY WITH ANTI-CD73 ANTIBODIES” (BRISTOL-MYERS SQUIBB COMPANY, priority 2016, published 2019).

Assay in all cases: SPR, antibody binding to anti-his Fab captured FcgR-his (% Rmax)
Holding throughout (conditions): 1 μM antibody

In one assay the target is CD64 (FcgRI) (Homo sapiens, UniProt P12314). How it is done: (§1) The binding of antibodies to Fc gamma receptors (FcγRs or FcgRs) was studied using biosensor technologies including Biacore surface plasmon resonance (SPR) and Fortebio Biolayer Interferometry (BLI). SPR studies were performed on a Biacore T100 instrument (GE Healthcare) at 25° C. The Fab fragment from a murine anti-6×His antibody was immobilized on a CM5 sensor chip using EDC/NHS to a density of −3000 RU. Various his-tagged FcgRs (7 ug/ml) were captured via the C-terminal his-tag using a contact time of 30 s at 10 ul/min, and the binding of 1.0 μM antibody was evaluated in a running buffer of 10 mM NaPO4, 130 mM NaCl, 0.05% p20 (PBS-T) pH 7.1. FcgRs used for these experiments included CD64 (FcgRI), CD32a-H131 (FcgRIIa-H131), CD32a-R131 (FcgRIIa-R131), CD32b (FcgRIIb), CD16a-V158 (FcgRIIIa-V158), CD16b-NA1 (FcgRIIIb-NA1), and CD16B-NA2 (FcgRIIIb-NA2). BLI experiments were performed on a Fortebio Octet RED instrument (Pall, Fortebio) at 25° C. in 10 mM NaPO4, 130 mM NaCl, 0.05% p20 (PBS-T) pH 7.1. Antibodies were captured out of undiluted expression supernatants on protein A coated sensors, followed by the binding of 1 μM hCD32a-H131, hCD32a-R131, hCD32b, hCD16a-V158, or 0.1 μM hCD64 analytes.

Assay [1] deals with CD16a-V158 (FcgRIIIa-V158) (Homo sapiens, UniProt P08637, F176V). As for the experimental part:
as §1

The next assay addresses CD16B-NA2 (FcgRIIIb-NA2) (Homo sapiens, UniProt O75015). How it is done: as §1
For the next assay, the target named is T1, CD32b (FcgRIIb) (Homo sapiens, UniProt P31994).
T1 sequence (P31994 43-310): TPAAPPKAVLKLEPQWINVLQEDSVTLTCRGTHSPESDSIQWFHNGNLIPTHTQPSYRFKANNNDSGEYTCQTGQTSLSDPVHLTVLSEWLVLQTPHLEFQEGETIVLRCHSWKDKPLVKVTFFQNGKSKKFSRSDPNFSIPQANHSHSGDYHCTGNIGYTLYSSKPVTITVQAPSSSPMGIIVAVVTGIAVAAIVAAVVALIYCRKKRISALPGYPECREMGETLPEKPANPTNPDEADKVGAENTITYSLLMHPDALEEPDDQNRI
As for the experimental part:
as §1

Assay [2] deals with T2, CD32a-R131 (FcgRIIa-R131) (Homo sapiens, UniProt P12318, H167R).
T2 sequence (P12318 34-217 H167R limits assumed): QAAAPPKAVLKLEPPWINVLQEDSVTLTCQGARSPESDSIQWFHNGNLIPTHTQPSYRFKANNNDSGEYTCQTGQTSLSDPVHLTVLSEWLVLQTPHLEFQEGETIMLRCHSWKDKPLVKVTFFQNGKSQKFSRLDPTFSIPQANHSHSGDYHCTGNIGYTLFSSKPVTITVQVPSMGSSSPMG
How it is done: as §1

Assay [3] has as its target T3, CD32a-H131 (FcgRIIa-H131) (Homo sapiens, UniProt P12318).
T3 sequence (P12318 34-217 limits assumed): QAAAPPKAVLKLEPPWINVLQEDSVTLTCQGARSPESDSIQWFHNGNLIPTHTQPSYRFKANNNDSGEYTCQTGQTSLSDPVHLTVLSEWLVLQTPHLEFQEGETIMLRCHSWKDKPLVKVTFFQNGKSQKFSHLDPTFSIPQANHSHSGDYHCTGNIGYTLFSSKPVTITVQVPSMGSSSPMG
As for the experimental part:
as §1

Sequence of CD64 (FcgRI) (P12314 16-374): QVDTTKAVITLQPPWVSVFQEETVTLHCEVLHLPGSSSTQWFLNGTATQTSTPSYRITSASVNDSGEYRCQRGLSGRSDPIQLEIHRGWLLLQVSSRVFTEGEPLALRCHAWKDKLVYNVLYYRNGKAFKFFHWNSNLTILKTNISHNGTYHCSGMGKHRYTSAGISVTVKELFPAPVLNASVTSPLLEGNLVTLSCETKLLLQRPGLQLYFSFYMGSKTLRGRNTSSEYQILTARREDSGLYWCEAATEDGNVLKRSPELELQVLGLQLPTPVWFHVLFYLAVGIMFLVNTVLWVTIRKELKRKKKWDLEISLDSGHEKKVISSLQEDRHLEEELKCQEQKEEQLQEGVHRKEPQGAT
Sequence of CD16B-NA2 (FcgRIIIb-NA2) (O75015 17-200 limits assumed): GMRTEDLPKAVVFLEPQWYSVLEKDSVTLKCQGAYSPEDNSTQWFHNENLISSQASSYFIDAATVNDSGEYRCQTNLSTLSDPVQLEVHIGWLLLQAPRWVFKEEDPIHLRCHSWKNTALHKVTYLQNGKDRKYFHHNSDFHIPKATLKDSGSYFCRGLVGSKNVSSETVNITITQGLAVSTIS
Sequence of CD16a-V158 (FcgRIIIa-V158) (P08637 17-208 F176V limits assumed): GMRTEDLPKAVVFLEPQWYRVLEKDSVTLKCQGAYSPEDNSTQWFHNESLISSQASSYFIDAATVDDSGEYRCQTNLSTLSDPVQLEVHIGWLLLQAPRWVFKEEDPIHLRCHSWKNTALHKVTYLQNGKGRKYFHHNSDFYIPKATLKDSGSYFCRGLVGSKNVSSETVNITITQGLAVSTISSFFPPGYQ

B1: mAb7-IgG2.5G1-AY-V27 (protein)
constant: ASTKGPSVFPLAPSSRSTSESTAALGCLVKDYFPEPVTVSWNSGALTSGVHTFPAVLQSSGLYSLSSVVTVPSSNFGTQTYTCNVDHKPSNTKVDKTVERKCCVECPPCPAPELLGGPSVFLFPPKPKDTLMISRTPEVTCVVVDVEHEDPEVKFNWYVDGVEVHNAKTKPREEQYNSTYRVVSVLTVLHQDWLNGKEYKCKVSNKALPAPIEKTISKAKGQPREPQVYTLPPSREEMTKNQVSLTCLVKGFYPSDIAVEWESNGQPENNYKTTPPVLDSDGSFFLYSKLTVDKSRWQQGNVFSCSVMHEALHNHYTQKSLSLSPGK
modifications: left off: another chain or arm of the molecule
For B1, the “% Rmax hCD64” value in the assay with CD64 (FcgRI) is given as 81%. Further, in assay [1], the “% Rmax hCD16a-V158” value is recorded as 32%. In addition, the “% Rmax hCD16B-NA2” value with CD16B-NA2 (FcgRIIIb-NA2) amounted to 9%. In addition, the “% Rmax hCD32b” value with CD32b (FcgRIIb) is listed as 84%. In addition, the “% Rmax hCD32a-R131” value in assay [2] came out at 89%. Moreover, in assay [3], the “% Rmax hCD32a-H131” value stood at 74%.

B2: mAb8-IgG2.5G1-AY-V27 (protein)
constant: ASTKGPSVFPLAPSSRSTSESTAALGCLVKDYFPEPVTVSWNSGALTSGVHTFPAVLQSSGLYSLSSVVTVPSSNFGTQTYTCNVDHKPSNTKVDKTVERKCCVECPPCPAPELLGGPSVFLFPPKPKDTLMISRTPEVTCVVVDVEHEDPEVKFNWYVDGVEVHNAKTKPREEQYNSTYRVVSVLTVLHQDWLNGKEYKCKVSNKALPAPIEKTISKAKGQPREPQVYTLPPSREEMTKNQVSLTCLVKGFYPSDIAVEWESNGQPENNYKTTPPVLDSDGSFFLYSKLTVDKSRWQQGNVFSCSVMHEALHNHYTQKSLSLSPGK
modifications: left off: another chain or arm of the molecule
Turning to B2, the “% Rmax hCD64” value with CD64 (FcgRI) is recorded as 77%. Besides, the “% Rmax hCD16a-V158” value in assay [1] turned out to be 33%. Moreover, in the assay with CD16B-NA2 (FcgRIIIb-NA2), the “% Rmax hCD16B-NA2” value came out at 10%. For the same molecule, the “% Rmax hCD32b” value with CD32b (FcgRIIb) was 77%. Moreover, the “% Rmax hCD32a-R131” value in assay [2] came to 79%. Moreover, the “% Rmax hCD32a-H131” value in assay [3] is recorded as 76%.
